# According to US20120289454:
# Columns and labels:
# [1] = test system: GGhyrfk-amide (synthetic); conditions: Cu complex; Vmax 2.86 RFU/min
# [2] = test system: GGHYrFK-amide (synthetic); assay: cleavage_in_vitro; conditions: Cu complex; KM 0.85 µM; turnover number 32; 1 mM ascorbate, 1 mM H2O2
# [3] = test system: GGHYrFK-amide (synthetic)
sequence,measurement,setting,value
GGCAGAAAGCGUCUAGCCAUGGCGUUAGUAUGCC [HCV IRES SL IIb RNA],Kd,[1],6.09 µM
same,activity,[2],0.53 min-1 (kcat)
same,Kd,[3],44 nM
